Substrate in series [1]: O=C1c2c(O)cc(O)cc2O[C@H](c2ccc(O)c(O)c2)[C@H]1O
The experiment in a line: DFR enzyme assay, radiolabelled substrate, as previously described. In kind it is biochemical, Zea mays. Conditions: NADPH-dependent reduction; labelled compound.

Substrate in the series “purified protein”: O=C1c2c(O)cc(O)cc2O[C@H](c2cc(O)c(O)c(O)c2)[C@H]1O
Nature of the series: purified protein. To be noted: NADPH-dependent reduction; labelled compound.

B1: recombinant A1 protein (maize DFR) (Zea mays) (protein)
chain: MERGAGASEKGTVLVTGASGFVGSWLVMKLLQAGYTVRATVRDPANVGKTKPLMDLPGATERLSIWKADLAEEGSFHDAIRGCTGVFHVATPMDFLSKDPENEVIKPTVEGMISIMRACKEAGTVRRIVFTSSAGTVNLEERQRPVYDEESWTDVDFCRRVKMTGWMYFVSKTLAEKAALAYAAEHGLDLVTIIPTLVVGPFISASMPPSLITALALITGNAPHYSILKQVQLIHLDDLCDAEIFLFENPAAAGRYVCSSHDVTIHGLAAMLRDRYPEYDVPQRFPGIQDDLQPVRFSSKKLQDLGFTFRYKTLEDMFDAAIRTCQEKGLIPLATAAGGDGFASVRAPGETEATIGA
notes: full-length A1 cDNA in pGEX-6P-1, GST fusion from E. coli, GST tag removed, purified; A1 CDS 1,074 bp
As for B1, in series [1], the Km (usually the substrate concentration at which the rate is half of its maximum) came to 2.9 µM; the kcat (as a rule, the number of substrate molecules converted per active site and unit of time at saturation) came out at 0.70 s⁻¹. In the series “purified protein”, the Km turned out to be 3.1 µM and the kcat was found to be 0.87 s⁻¹.

B2: recombinant PhDFR (Petunia × hybrida DFR) (Petunia x hybrida) (protein)
chain: MASEAVHAPSPPVAVPTVCVTGAAGFIGSWLVMRLLERGYNVHATVRDPENKKKVKHLLELPKADTNLTLWKADLTVEGSFDEAIQGCQGVFHVATPMDFESKDPENEVIKPTVRGMLSIIESCAKANTVKRLVFTSSAGTLDVQEQQKLFYDQTSWSDLDFIYAKKMTGWMYFASKILAEKAAMEEAKKKNIDFISIIPPLVVGPFITPTFPPSLITALSLITGNEAHYCIIKQGQYVHLDDLCEAHIFLYEHPKADGRFICSSHHAIIYDVAKMVREKWPEYYVPTEFKGIDKDLPVVSFSSKKLTDMGFQFKYTLEDMYKGAIDTCRQKQLLPFSTRSAEDNGHNREAIAISAQNYASGKENAPVANHTEMLSNVEV
Consider B2, for which, in the series “purified protein”, the Km turned out to be 1.3 µM and the kcat amounted to 2.14 s⁻¹.
